The values that follow come from patent US8557986B2, “Method of producing polysaccharide derivatives” (Seikagaku Corporation, priority 2006, dated 2013).

How the values of series [1] were obtained:
The aminoethanol-diclofenac-introduced sodium hyaluronate prepared in Reference Examples 1 and 2 were tested by the same procedure.

Series [2] is described as follows: Test Example 2: passage of 1.0% (w/v) aqueous solution through 0.22 μm porous filter. In kind it is physicochemical. The conditions noted are these: Millex-GV 0.22 μm pore diameter, room temperature, absorbance before and after filter passage. The method, then: Each of the aqueous solutions (test solutions) was injected into a rear portion of a syringe (1 mL in volume: manufactured by TERUMO Corporation) equipped with a porous filter (Millex-GV of 0.22 μm pore diameter: manufactured by Millipore Corporation) and was pressed out with a piston at room temperature to pass through the porous filter.
The diclofenac-based absorbance (peak top) at about 280 nm was measured for each of the test solutions before, and after the filter passage of at least 0.5 mL. The filter passage coefficient of each test solution was expressed by a concentration of the diclofenac content in the test solution before and after the filter passage that was calculated from the change in measured absorbance.

As to “aminoethanol-diclofenac-introduced sodium hyaluronate [Reference Example 1]”, the “solubility in distilled water (appearance of the solution)” value (“solubility in distilled water” below) in series [1] is on record as “not dissolved in distilled water but yielded a white suspension”.

For the substance “aminoethanol-diclofenac-introduced sodium hyaluronate [Example 2]”, the “solubility in distilled water” value in series [1] is “homogeneously dissolved in distilled water and yielded clear and viscous aqueous solutions”.

Take “aminoethanol-diclofenac-introduced sodium hyaluronate [Example 1]”: the filter passage coefficient in series [2] came out at 95.3%.

Take “aminoethanol-diclofenac-introduced sodium hyaluronate [Example 3]”: in series [1], the “solubility in distilled water” value was “homogeneously dissolved in distilled water and yielded clear and viscous aqueous solutions”.

For the substance “aminoethanol-diclofenac-introduced sodium hyaluronate [Reference Example 4]”, the filter passage coefficient in series [2] amounted to 11.0%.

Regarding “aminoethanol-diclofenac-introduced sodium hyaluronate [Reference Example 2]”, in series [1], the “solubility in distilled water” value is “homogeneously dissolved in distilled water and yielded clear and viscous aqueous solutions”.

In the case of “aminoethanol-diclofenac-introduced sodium hyaluronate [Reference Example 3]”, the filter passage coefficient in series [2] is reported as 96.9%.
